# Data from publication PMC4892554.
# Assays:
# [1] = target: Palivizumab; assay: flow cytometry on cells (shotgun mutagenesis alanine scan, HEK293T); conditions: read off a plot
# [2] = target: D25; assay: as above; conditions: read off a plot
Substance,percent of parent [1],percent of parent [2]
wildtype RSV F (RSV-A2) expressed on HEK-293T cells (from UniProt P03420) D385A,140 % WT,88 % WT
wildtype RSV F (RSV-A2) expressed on HEK-293T cells (from UniProt P03420) F387A,150 % WT,74 % WT
wildtype RSV F (RSV-A2) expressed on HEK-293T cells (from UniProt P03420) G446A,70 % WT,90 % WT
wildtype RSV F (RSV-A2) expressed on HEK-293T cells (from UniProt P03420) K433A,150 % WT,120 % WT
wildtype RSV F (RSV-A2) expressed on HEK-293T cells (from UniProt P03420) K465A,140 % WT,100 % WT
wildtype RSV F (RSV-A2) expressed on HEK-293T cells (from UniProt P03420) N388A,87 % WT,74 % WT
wildtype RSV F (RSV-A2) expressed on HEK-293T cells (from UniProt P03420) N426A,290 % WT,230 % WT
